B1: DNA endonuclease SAE2 (Saccharomyces cerevisiae), P46946 (parent)
chain: MVTGEENVYLKSSLSILKELSLDELLNVQYDVTTLIAKRVQALQNRNKCVLEEPNSKLAEILCHEKNAPQQSSQTSAGPGEQDSEDFILTQFDEDIKKESAEVHYRNENKHTVQLPLVTMPPNRHKRKISEFSSPLNGLNNLSDLEDCSDTVIHEKDNDKENKTRKLLGIELENPESTSPNLYKNVKDNFLFDFNTNPLTKRAWILEDFRPNEDIAPVKRGRRKLERFYAQVGKPEDSKHRSLSVVIESQNSDYEFAFDNLRNRSKSPPGFGRLDFPSTQEGNEDKKKSQEIIRRKTKYRFLMASNNKIPPYEREYVFKREQLNQIVDDGCFFWSDKLLQIYARC
partner: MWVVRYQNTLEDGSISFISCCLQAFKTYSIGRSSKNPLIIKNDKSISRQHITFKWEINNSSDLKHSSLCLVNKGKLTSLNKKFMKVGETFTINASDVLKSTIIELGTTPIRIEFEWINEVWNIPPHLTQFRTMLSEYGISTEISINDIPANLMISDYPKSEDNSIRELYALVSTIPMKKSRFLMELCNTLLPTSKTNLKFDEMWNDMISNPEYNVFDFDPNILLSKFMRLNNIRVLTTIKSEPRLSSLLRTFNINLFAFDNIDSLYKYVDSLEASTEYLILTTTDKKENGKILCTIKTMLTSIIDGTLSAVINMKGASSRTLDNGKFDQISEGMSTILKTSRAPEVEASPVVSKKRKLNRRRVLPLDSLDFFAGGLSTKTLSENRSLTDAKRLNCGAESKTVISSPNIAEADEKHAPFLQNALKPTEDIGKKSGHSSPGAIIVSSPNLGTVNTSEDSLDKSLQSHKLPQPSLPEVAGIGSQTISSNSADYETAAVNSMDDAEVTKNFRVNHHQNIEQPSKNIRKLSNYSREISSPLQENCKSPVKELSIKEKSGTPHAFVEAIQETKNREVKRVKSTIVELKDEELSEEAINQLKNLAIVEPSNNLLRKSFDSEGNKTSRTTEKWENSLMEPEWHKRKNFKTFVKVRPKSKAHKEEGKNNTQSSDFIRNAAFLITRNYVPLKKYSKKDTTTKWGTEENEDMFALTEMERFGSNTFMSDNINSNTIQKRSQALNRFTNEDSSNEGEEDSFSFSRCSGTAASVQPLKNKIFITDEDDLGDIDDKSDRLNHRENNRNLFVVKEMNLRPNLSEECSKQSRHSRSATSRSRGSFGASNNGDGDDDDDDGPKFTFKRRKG

Variants of: B1
Details: with xrs2_yeast XRS2, P33301

Question: Which “effect of a mutation on the interaction” value does the source give for MVTGEENVYLKSSLSILKELSLDELLNVQYDVTTLIAKRVQALQNRNKCVLEEPNSKLAEILCHEKNAPQQSSQTSAGPGEQDSEDFILTQFDEDIKKESAEVHYRNENKHTVQLPLVTMPPNRHKRKISEFSSPLNGLNNLSDLEDCSDTVIHEKDNDKENKTRKLLGIELENPESTSPNLYKNVKDNFLFDFNTNPLTKRAWILEDFRPNEDIAPVKRGRRKLERFYAQVGKPEDSKHRSLSVVIESQNSDYEFAFDNLRNRSKSPPDFGRLDFPSTQEGNEDKKKSQEIIRRKTKYRFLMASNNKIPPYEREYVFKREQLNQIVDDGCFFWSDKLLQIYARC [G270D] here?
Answer: decreasing interaction strength

Question: With MVTGEENVYLKSSLSILKELSLDELLNVQYDVTTLIAKRVQALQNRNKCVLEEPNSKLAEILCHEKNAPQQSSQTSAGPGEQDSEDFILTQFDEDIKKESAEVHYRNENKHTVQLPLVTMPPNRHKRKISEFSSPLNGLNNLSDLEDCSDTVIHEKDNDKENKTRKLLGIELENPESTSPNLYKNVKDNFLFDFNTNPLTKRAWILEDFRPNEDIAPVKRGRRKLERFYAQVGKPEDSKHRSLSVVIESQNSDYEFAFDNLRNRSKAAPGFGRLDFPSTQEGNEDKKKSQEIIRRKTKYRFLMASNNKIPPYEREYVFKREQLNQIVDDGCFFWSDKLLQIYARC [S267A;P268A] as the variant, how does the “effect of a mutation on the interaction” value read?
Answer: disrupting interaction strength

Question: For MVTGEENVYLKSSLSILKELSLDELLNVQYDVTTLIAKRVQALQNRNKCVLEEPNSKLAEILCHEKNAPQQSSQTSAGPGEQDSEDFILTQFDEDIKKESAEVHYRNENKHTVQLPLVTMPPNRHKRKISEFSSPLNGLNNLSDLEDCSDTVIHEKDNDKENKTRKLLGIELENPESTSPNLYKNVKDNFLFDFNTNPLTKRAWILEDFRPNEDIAPVKRGRRKLERFYAQVGKPEDSKHRSLSVVIESQNSDYEFAFDNLRNRSKSPPGFGRLDFAAAQEGNEDKKKSQEIIRRKTKYRFLMASNNKIPPYEREYVFKREQLNQIVDDGCFFWSDKLLQIYARC [P277A;S278A;T279A], which “effect of a mutation on the interaction” value is on record?
Answer: decreasing interaction strength

Source: IntAct's records for PubMed 25231868
